Experimental data taken from publication PMC9119168.

Sequence of MERS-CoV Mac1, His-tagged (domain or fragment) (K9N638 1110-1276 limits assumed): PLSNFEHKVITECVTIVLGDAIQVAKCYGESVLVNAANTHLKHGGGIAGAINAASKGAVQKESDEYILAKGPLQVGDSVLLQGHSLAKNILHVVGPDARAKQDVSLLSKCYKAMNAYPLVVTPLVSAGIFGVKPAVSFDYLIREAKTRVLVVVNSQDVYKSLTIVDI

The substances below were run against 10 amino acid biotinylated and ADP-ribosylated peptide [ARTK(Bio)QTARK (Aoa-RADP)S] (assay: AlphaScreen or HTRF).
With “human macrodomain Mdo2, His-tagged (domain or fragment)” the macrodomain concentration at the maximum AS signal was 0.04 µM. For “SARS-CoV-2 Mac1 (conserved macrodomain of non-structural protein 3), His-tagged (from UniProt P0DTD1) (domain or fragment)”, the macrodomain concentration at the maximum AS signal was 0.625 µM. “MERS-CoV Mac1, His-tagged (domain or fragment)” showed a macrodomain concentration at the maximum AS signal of 1.25 to 2.5 µM. “SARS-CoV Mac1, His-tagged (domain or fragment)” gave a macrodomain concentration at the maximum AS signal of 1.25 to 2.5 µM.
